Two substances from patent US20070122406A1 can be followed below.

What is called Kd is the constant that tells how readily two partners part at equilibrium.

Where “and” joins values, the source holds several entries; their conditions need not be identical. Equal entries are not always repeated. Where two headings read alike, the source gives them in different places.

One assay has as its target FcgRI. In words: SPR. Background: Surface plasmon resonance follows binding to a sensor surface in real time, without labels.
Assay [1] has as its target recombinant human Ep-CAM/Fc (R&D Systems) (human) (UniProt P16422). The experiment in a line: SPR.
Assay [2] addresses extracellular domain of Ep-CAM (DIGylated) (UniProt P16422). In words: antigen binding.
The target of assay [3] is recombinant human Ep-CAM/Fc (R&D Systems) (human) (UniProt P16422). In words: SPR. This is another data set of the same source.
Chain of recombinant human Ep-CAM/Fc (R&D Systems) (human) (P16422 24-265): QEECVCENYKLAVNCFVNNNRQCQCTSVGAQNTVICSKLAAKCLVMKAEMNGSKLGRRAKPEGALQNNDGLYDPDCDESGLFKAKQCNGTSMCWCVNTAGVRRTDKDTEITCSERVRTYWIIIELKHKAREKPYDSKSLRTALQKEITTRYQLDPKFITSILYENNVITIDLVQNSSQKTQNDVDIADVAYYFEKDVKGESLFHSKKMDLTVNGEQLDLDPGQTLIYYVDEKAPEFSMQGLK

Chain of extracellular domain of Ep-CAM (DIGylated) (P16422 24-265): as above

Turning to “H3.77_L3 S239D IgG1 (from UniProt P01857 1-330)”, the Kd in the assay with FcgRI worked out at 1.37 nM.
On to “Wild-type IgG1 Ep-CAM antibody (17-1A H0L0 variable regions, chimeric human IgG1)”, for which the Kd in assay [1] turned out to be 158 nM; in assay [3] it was 159 nM. Besides, the EC50 in assay [2] was 1.9E-07 ? and 2.5E-07 ?.
